Measurements as given in the domain aggregation screens of Martell et al. (2025).

Assay: soluble fraction after stress (log2 fold change); higher = more stays soluble; pooled small domains, quantitative proteomics
Settings: stress: 75 degC
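Also: 20 min heating vs room temperature control held 20 min.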

Sequence | soluble fraction (log2)
HMKRQDFEFLVNLLRQNAGWDFDEEQYFVVDKKISNFIREKGYASVEDLIDELKVGAKPLISQVVESLAL | -0.576
HMKRTFGEISPLPSGRYRARYRGPDGERYPAPVTFLSRMDAETWLSAQARKVSSGDWTPPVGVVA | -0.34
HMKRWHVGDPIDALTAAGKVPSWSTIRQRFWKTIAALYPDIEQSERLQRGLAMLDEAGTSIELHHP | -1.03
HMKRYLFEEVLAFLKHNDGKSFNYKQLGAAMEIDNESDRFALLETLEELKHQGFVIETDIGKYAAKE | -0.868
HMKSDELTKRRRLQIIEAAERSFRKRGFHATTLREIAAEFGMSVGHIYNYFSGKDAILEALIHQKIDD | -1.01
HMKSKHENLIDGLLKMISSMKPHDRLTPERQLAEEWAVSRMTLRRALEVLQFQGKIYTVPSSGLFVAEPK | -2.89
HMKSKPRVPFGSLVEMGILKPGSILFDPKGKIKTKVMVDGSIKYKETEGSIHKVAAQIMGTESYNGWTYW | 0.488
HMKSLDDVISKFRPTGSENKIDFRKRVISEIHAQGFFKIKGSVNHVAKALGVTRYTVYNYLDKLND | -3.65
HMKSLLTHAEEFVRNNNGRWMLAETSSKESYSSKQNFYLRNNYSIISEIRDFYSVGDNLLVFGKFFT | 0.201
HMKSNESAELGERMLNKALLALHTDSSKISDTQWQKLLRDYGAKNKQEILTDIGLGKRLNVMVAHQLMAMG | -0.271
HMKSNIGENIRQLREKREMSVERVARMLEVKPATVIGWESGRELPEPAELGLLAKLFDVTVEELN | -0.121
HMKSNKEKIYDFIQMHDTAEKEGGVSTTYIAQALSLQRTNVSSLLNALVEEGRIHKSNGRPVLYSIAG | -0.242
HMKSPAQAAALKKLWAAIKQNEQGEVVEVLFHNRKLTDAGLVHLKGLANLQTLNLYDTKITGAGLVHL | -0.0641
HMKSVLDDVAGLGPVRKKALLKAMGGFTRLRAASLDDILAVRAVPEEVAREVFAVLAQYNSVRNNDISE | -1.08
HMKSVTAPLPGTVTQILVKVGDAVKAGDTVLMLEAMKMENSITAEAAGTVKAIRVEKGAQVQGGDVLIEM | 0.157
HMKTAAKVLGESGGKPVTVQSGRYGPYVQLGTIRATLPKDLDQEAVTLDKALELIDAKAERSGK | 0.00631
HMKTDFEIDITVKASSLRVVASPGGDELVGTVTRGDRVTQLATPKDGWILIKMTDGRLGYVPESLLLFP | -1.87
HMKTEIGQAMRKLRKAKKMTQDTLAEKLGVAPANISRYEKGQQGIEVDKLPTLADALGVSVPEFFAIASG | 0.0367
HMKTELAYDFHSRIRDARIREGLSQVDLAKRMNEKIAVIQKAENGIRPTDSLIAKFSKALSVELYVE | -2.12
HMKTGIIYGVNGPVIYLKGDTGFKISEMVYVGPEKLVGEVIGLKKHMTTVQVFEETTGLKPGETVIGTGDA | -0.378
HMKTGTVQDFIAKYGMSSKSPSSWFNSLTQIQKAEAKALKAQSGLTWNEWYEKNIYNGDGSNL | -0.0584
HMKTKHISIAEGMSLYTRDRSPFYWGYLNIEGVIHKKSLKTDVVDEAIKLLSIWKNELLNSITK | -1.19
HMKTKKYKGVYKDSKGKIYFQIELGVDPITGKRIQKKGRKNQQGLPFNSFKEAYEEILRLKHEFVNSTIN | -3.35
HMKTKTAPPDSIPPAWLKESATLRPDLNQAQIKASAEVFLDHHRAKGTTLADWRPAWRNWIRRERA | 0.0178
HMKTLDAFFDQARDAYKKLKKDGDIDNLKVLRNQLQTVRETQGDAVRKKSKEEYRRLVDIIDDIDGLLAAF | -0.123
HMKTLSKEDIGFLSDEAVGEMRKAVANGEMLELRALIDQVGEKNPIVAEKLLTLVKQYDYENLNRVLE | 0.102

Sequence | soluble fraction (log2)
HMKTPAPRETILSLFRQTPDGFVSGERISDELGVSRTAVWKHIRNLRQAGYQIEAIPSRGYQLQQS | -0.556
HMKTQFGTIVKQLRERKGMDQKQLGEIVGVSDKTVSSWEINRTEPKMGIVQQLADYFGVSTDYLIKG | 0.306
HMKTRQVTVRNGRIEIFDKRFSTERLVFTAANLPVLEREGEVFTAGIPDSRDFINLWARDGSFAGSVPRV | -1.96
HMKTTSYAKLLRFLRTERDLSQITVAKQLGLSRASYLALEHGSRELSLSEAVKVTTLYGIRIDDLIVNH | -3.35
HMKTTVEVSPIARPGAVASGSVKFGSGVTAEWMLDQYGRLGLDKPTGKPTEQDIKEFQIELQKAL | 0.0637
HMKVDLSEEEKTILELLKKESPQELETIKAASTLSNKKWDKAIKGLRKHNLAKVNKTDDGLFVELE | 0.234
HMKVDRLISIVLVLLDKNRISAQELADMFEVSLRTIYRDIDAIELAGIPIRSTSGVGGGFEIMPNY | -1.11
HMKVKGVYQLDNGYWGYRFTMLVNGKTVSQRRVKDESGNPFKTEKKAEKARLVAMAEEQTKANK | -2.22
HMKVMTNAELGRIIKEARIARRMTQSEVVGDFITRNMLSQIENGNAAPSMRTLQYLMDVLDIHINIE | -3.02
HMKVNIGDQVYNQMKDQIMSGVWVPGEKIPSENQLMEVFGVSRGTVRQAIQKLSAVGLLETRRGEGSYVGQ | -0.136
HMKVQLGMNTREVRGIMGKPFSEDTFVEGEKRVDVLHYKEAVRVKTQGFILTTSLRFENDSLTAI | -1.62
HMKVRVFIERSNDGYSAYMPDDNNLPFGLTGDGKTAQEAMQDFLLARDEMKEFFIEEGKEFPEVEFDFS | -0.828
HMKVSAEEQNILDALQAAGGYLPFHDKSNPEEIYEAFGISKKTFKMIIGSLYKQQKINLTQTGIQLII | 0.303
HMKVSDPEAIKLIEQAQVKVIPFLDISEAADIQIALEELKNSEGTGQTDSAKVRLRNLLSPFSYL | 0.577
HMKVSFEIEINGVTKSINSINEAKEAISELQDIMDNSTFGSEEFKNAATQIDKLQNKLVEALDK | 0.93
HMKVSVDLSMFEDDQTADRNAAVAWVVDELGAGGVDRTILMQLQSTGWSAEQSRAILDLASAGR | -0.311
HMKVTGSVQKKKGYYYIVVRLPTKNGTQYEQKQKWFNTKLKATPRNKTAAQVILAEKLTEYGGIV | -3.04
HMKVWYAGINAQRVGPMTLGAMEQQIRYGRVLFSTLIWKSPMPQWVPAGDVPELRRLLDEHMLNQMP | -0.841
HMKYFDRDLINYIQKTLAGKKIDFHEKIVPLIIELAGSDIRRVDEIIDMAEYSGKGMHVSEEMIRELAGDV | -0.715
HMKYKTKRDMILALMKKEILSGELKPRTRLLISEVASRYEVSEIPVREAFQVLIQEDLVRSTGAGFEVT | -2.36
HMKYPVYLQLADLIERKINKNEYPLGSKIPSERELIDAFGISRMTVRKAIEVLIEKGLLTRQHGKGTYVSQ | -2.26
HMKYSNDFDKVSYSLGLSIASNLISSGVKTLNAEAFNDGLATVFEGRMPEINPDEANKILQNFFEGLQKE | -0.278
HMKYSQAMIAQIIKHFHLPNNTVVTGEDVDAILLRSVDGGDGIYGGDVVSIWKYYKKQNDIQEIVT | -0.764
HMLAEEDRRRAERPGLDGNAVMVHLGIGPGRHVGEALAFLLEVRRSEGDLAVAELKSRIDAWWADR | -2.17
HMLAERKERDKAELKELILDAAKKILLKNGQEGLSIRKIATTVEYSPATIYLYFKDKDEILHELMEMG | 0.123
HMLAHSEFGARLRETRKRLGLSQSELGGDRYSGSYISHLESGRRAASAEVIEFLAGRLGVEVEELGM | -0.406

Sequence | soluble fraction (log2)
HMLAIELDDKPGSLLRALEIFAKRNLNIEYMYAFTEKRGDKAVMIFKFSDIETAKKSLLEEGFN | -2.11
HMLAKNDSGLNNHTFNAIRDALLEALADGPAEAKKLTENISFPSDKIITVIRFLADHDDRFSLEDGILSLT | -0.738
HMLAKYEIIKQDIIQMIEEKKFKPGDKIYSEGELKKIYNVSSTTVVRALQDLVLSGYLIRKQGEGTYVRK | -3.2
HMLASDYEEELSVLIKMSHKIAAGDDSLMDDFNDRVTMFESSYPINKATKDLTPVLERVNKFQT | -0.908
HMLDDDAGMIQAILRKAPGHYLPLHDKSDPASIQAQLGISKAQFKRAVGTLMKQGLIRQVKGDGLYLTQ | -0.271
HMLDDESLHFFYKKDGWEYWMKTTTENNYPIQLRKKIGDEKVQEYWNGDKEKKKIGASYFGV | -0.465
HMLDFLVSKYESELLADLLWSLGVVAVEEREATGDLVTLRTSLGDDHSFTRELVQEKFPDVIVSTAL | -1.74
HMLDIVVGSTGYALGEITDHSGTVRVNGDTWTARLVDAAGPVEDGDRVEVYAVEGTTLLVYPS | -0.619
HMLDKEDNANAGKTLLERELSRAHLSDVEHRELAQRLHLASEQELYIKIGSGDLSIIQALNRAKEFKDT | -0.0269
HMLDKRSHAKKVLDAIEAVILGRATNDQLAYTINGRSLQKTPLPDLLRLRSQYQAEYQRELRAERIRKG | -0.697
HMLDLPVKTINGKQYYYYTVKKGDTVYSLITRFGITRSDLVESNPAAADVLKTGDTLYFAVDKFG | -1.19
HMLDLYYDSEDKLLIDMGTGEVIRSFADDKRSLVFDAQAKILFDEDSGDIVYSSYFDKLITDKLASKS | -0.396
HMLDPIQEGKKMLNSRLSGFGITPNTRLMNKLLAAYNISSREEFYGRIGAGIEDLSTLREVLLKGT | -0.973
HMLDQSYYETANEIISRYPLEEKSLIPIIQDIQATYRYLPPDLLDYVAKKIGITETKAYSVASFYENFSF | -0.721
HMLDRNKLNELDAYIESFEDKPSHLIMILHRAQGLFGYLPKELQIYVAEKTGVPAAKVYGVVTFYSFFTMK | -3.42
HMLEDDTVNTAEGIKIGDSFAAVTKAYGTDYVAAGNTYAYSKDKMTLTFVMNNDKVSTISYSLLTS | 0.136
HMLEDYFKEEEYTEVLKIPKEYIKGFQYYLIEDAEFVNALRAKNKTMTLFLAKKLASDYIEIIRREQ | -2.39
HMLEIGRYNTLTVLRKVDFGYYLDGLDYGDILMPAKYAATELEAGDEVDVFIYLDSSEKLIATTETPIAQ | -4.06
HMLEIQENFQNILKRMELSLSPLERRVLALYLSGYERSEIPEKTGIPLKTFDNALHRVRNKMK | -2.36
HMLEKDIGKAITILRKSYQLSISAFSMRTGYSRVHISEVESGKRKATDELISVIRNVFHLDSNWPF | -1.52
HMLELDRTNLLGVFGSKSNPYALIMLSNGEMLKLSIGDQFLGWRVYAIDQTTVHVQNGKNQEILRIP | -1.36
HMLELLSMEDIQRTRVGDLIATVRQVDRQHALVLDRDPETGKPAVRGIFSLSQISLRLGLNI | -2.17
HMLEPGIAVLKTLMSQYRLGVADLPELGSKSNVSKLLNAVEGKKLTRQHIEALSKRFAVSPALF | -0.148
HMLEPGQKVKSVVVDISGDLIYIDLGGKTEGVVELKEFYDEAGEYHVKPGDEIEVFFVSVQNGLKRFTT | -0.0603
HMLEQISDPEVLSKLADEVLSQQEKMVMDYRKGKTAAFQGLMGQMMKKTKGKGNPAKIQEILAQKL | 0.401
